Data taken from article PMC6502667 (Journal of structural biology, 2019).
Where two headings read alike, the source gives them in different places.

Experiments:
[1] = molecular target: human plasminogen (human) (UniProt P00747); test: SPR
[2] = molecular target: human plasminogen (human) (UniProt P00747); test: SPR; remark: listed apart in the source
[3] = molecular target: human plasminogen (human) (UniProt P00747); test: SPR; remark: listed apart in the source
[4] = molecular target: human plasminogen (human) (UniProt P00747); test: SPR; remark: listed apart in the source
[5] = molecular target: human plasminogen (human) (UniProt P00747); test: SPR; remark: listed apart in the source
[6] = molecular target: PAM_(NS88.2), PAM of GAS isolate NS88.2 (emm98.1), residues 42-385 (Streptococcus pyogenes (GAS) isolate NS88.2 (emm98.1)) (UniProt P49054); test: AUC
[7] = molecular target: PAM_(NS88.2), PAM of GAS isolate NS88.2 (emm98.1), residues 42-385 (Streptococcus pyogenes (GAS) isolate NS88.2 (emm98.1)) (UniProt P49054); test: AUC; remark: listed apart in the source
[8] = molecular target: PAM_(NS223), PAM of GAS isolate NS223 (emm91), residues 42-399 (Streptococcus pyogenes (GAS) isolate NS223 (emm91)); test: AUC
[9] = molecular target: PAM_(NS223), PAM of GAS isolate NS223 (emm91), residues 42-399 (Streptococcus pyogenes (GAS) isolate NS223 (emm91)); test: AUC; remark: listed apart in the source
[10] = molecular target: PAM_(NS455), PAM of GAS isolate NS455 (emm52), residues 42-401 (Streptococcus pyogenes (GAS) isolate NS455 (emm52)); test: AUC
[11] = molecular target: PAM_(NS455), PAM of GAS isolate NS455 (emm52), residues 42-401 (Streptococcus pyogenes (GAS) isolate NS455 (emm52)); test: AUC; remark: listed apart in the source
[12] = molecular target: PAM_(SS1448), PAM of GAS isolate SS1448 (emm86.2), residues 42-375 (Streptococcus pyogenes (GAS) isolate SS1448 (emm86.2)) (UniProt P49054); test: AUC
[13] = molecular target: PAM_(SS1448), PAM of GAS isolate SS1448 (emm86.2), residues 42-375 (Streptococcus pyogenes (GAS) isolate SS1448 (emm86.2)) (UniProt P49054); test: AUC; remark: listed apart in the source
[14] = molecular target: PAM_(SS1572), PAM of GAS isolate SS1572 (emm223), residues 42-399 (Streptococcus pyogenes (GAS) isolate SS1572 (emm223)); test: AUC
[15] = molecular target: PAM_(SS1572), PAM of GAS isolate SS1572 (emm223), residues 42-399 (Streptococcus pyogenes (GAS) isolate SS1572 (emm223)); test: AUC; remark: listed apart in the source
[16] = molecular target: PAM_(SS1574), PAM of GAS isolate SS1574 (emm224), residues 42-360 (Streptococcus pyogenes (GAS) isolate SS1574 (emm224)) (UniProt P49054); test: AUC
[17] = molecular target: PAM_(SS1574), PAM of GAS isolate SS1574 (emm224), residues 42-360 (Streptococcus pyogenes (GAS) isolate SS1574 (emm224)) (UniProt P49054); test: AUC; remark: listed apart in the source
human plasminogen [18] = molecular target: T1, human plasminogen (human, UniProt P00747 20-810); test: SPR
T1 sequence (P00747 20-810): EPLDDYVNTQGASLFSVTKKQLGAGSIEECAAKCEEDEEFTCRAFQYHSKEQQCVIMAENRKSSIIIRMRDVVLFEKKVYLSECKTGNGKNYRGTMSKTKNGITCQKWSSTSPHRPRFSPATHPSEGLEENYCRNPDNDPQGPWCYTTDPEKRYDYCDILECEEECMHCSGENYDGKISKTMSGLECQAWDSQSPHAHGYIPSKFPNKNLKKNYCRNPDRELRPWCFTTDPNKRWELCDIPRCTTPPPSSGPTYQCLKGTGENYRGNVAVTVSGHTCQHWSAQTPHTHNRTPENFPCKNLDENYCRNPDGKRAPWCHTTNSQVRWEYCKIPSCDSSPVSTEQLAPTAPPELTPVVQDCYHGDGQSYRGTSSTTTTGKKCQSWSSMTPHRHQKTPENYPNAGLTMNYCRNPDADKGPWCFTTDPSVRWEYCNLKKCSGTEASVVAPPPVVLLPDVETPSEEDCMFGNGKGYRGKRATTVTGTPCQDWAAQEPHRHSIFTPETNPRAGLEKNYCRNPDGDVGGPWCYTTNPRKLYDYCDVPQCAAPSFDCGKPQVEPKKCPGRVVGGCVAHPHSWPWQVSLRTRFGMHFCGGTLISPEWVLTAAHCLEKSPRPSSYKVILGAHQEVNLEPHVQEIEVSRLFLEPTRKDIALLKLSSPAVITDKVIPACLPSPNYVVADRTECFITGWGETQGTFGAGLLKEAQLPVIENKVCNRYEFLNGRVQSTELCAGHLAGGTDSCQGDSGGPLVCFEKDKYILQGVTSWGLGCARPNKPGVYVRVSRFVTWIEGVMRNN

human plasminogen [19] = molecular target: T1, human plasminogen; test: SPR; remark: listed apart in the source
human plasminogen [20] = molecular target: T1, human plasminogen; test: SPR; remark: listed apart in the source
human plasminogen [21] = molecular target: T1, human plasminogen; test: SPR; remark: listed apart in the source
human plasminogen [22] = molecular target: T1, human plasminogen; test: SPR; remark: listed apart in the source

Chain of human plasminogen (human) (P00747 20-810): as above

## AGL55_(NS88.2), peptide of PAM_(NS88.2) residues 95-149 (from UniProt P49054 95-149)
[1]
  Kd: 630 nM
[2]
  Kd: 830 nM
[3]
  Kd: 350 nM
[4]
  Kd: 160 nM
[5]
  Kd: 7.1 µM

## KTI55_(SS1448), peptide of PAM_(SS1448) residues 85-139 (from UniProt P49054 85-139)
[1]
  Kd: 2100 nM
[2]
  Kd: 1500 nM
[3]
  Kd: 540 nM
[4]
  Kd: 360 nM
[5]
  Kd: 27 µM

## PAM_(AP53), plasminogen-binding group A streptococcal M-protein of GAS isolate AP53 (emm53), residues 42-392 (natural protein)
[4]
  Kd: 21 nM
  koff: 0.0043 s⁻¹
  kon: 210000 M⁻¹ s⁻¹

## PAM_(NS88.2), PAM of GAS isolate NS88.2 (emm98.1), residues 42-385 (from UniProt P49054 42-385) (natural protein)
[6]
  % dimer: 91.4%
[7]
  % dimer: 55.5%
[4]
  Kd: 5700 nM

## PAM_(NS223), PAM of GAS isolate NS223 (emm91), residues 42-399 (natural protein)
[8]
  % dimer: 94.5%
[9]
  % dimer: 33.7%
[4]
  koff: 0.0056 s⁻¹

## PAM_(NS455), PAM of GAS isolate NS455 (emm52), residues 42-401 (natural protein)
[10]
  % dimer: 86.8%
[11]
  % dimer: 20.4%
[4]
  Kd: 6 nM
  koff: 0.0014 s⁻¹
  kon: 340000 M⁻¹ s⁻¹

## PAM_(SS1448), PAM of GAS isolate SS1448 (emm86.2), residues 42-375 (from UniProt P49054 42-375) (natural protein)
[12]
  % dimer: 86.7%
[13]
  % dimer: 56.4%
[4]
  Kd: 7000 nM

## PAM_(SS1572), PAM of GAS isolate SS1572 (emm223), residues 42-399 (natural protein)
[14]
  % dimer: 95%
[15]
  % dimer: 75.3%
[4]
  Kd: 40 nM
  koff: 0.0055 s⁻¹
  kon: 170000 M⁻¹ s⁻¹

## PAM_(SS1574), PAM of GAS isolate SS1574 (emm224), residues 42-360 (from UniProt P49054 42-360) (natural protein)
[16]
  % dimer: 100%
[17]
  % dimer: 33.5%
[4]
  Kd: 14 nM
  koff: 0.0075 s⁻¹
  kon: 562000 M⁻¹ s⁻¹

B1: PAM_(AP53_long), truncated PAM_(AP53), residues 42-338 (HVR-a1a2-B-c1c2c3-D) (domain or fragment)
chain: NRADDARNEVLRGNLVRAELWYRQIQENDQLKLENKGLKTDLREKEEELQGLKDDVEKLTADAELQRLKNERHEEAELERLKSERHDHDKKEAERKALEDKLADKQEHLNGALRYINEKEAEAKEKEAEQKKLKEEKQISDASRQGLRRDLDASREAKKQVEKDLANLTAELDKVKEEKQISDASRQGLRRDLDASREAKKQVEKGLANLTAELDKVKEEKQISDASRQGLRRDLDASREAKKQVEKALEEANSKLAALEKLNKELEESKKLTEKEKAELQAKLEAEAKALKEQLAK
modifications: Paper number minus 12 gives the entry number. His6 left out. Coiled-coil dimer (87% at 25 C)
Human plasminogen [18]
  Kd: 37 nM
  koff: 0.0043 s⁻¹
  kon: 120000 M⁻¹ s⁻¹
Human plasminogen [19]
  Kd: 2 nM
  koff: 0.00013 s⁻¹
  kon: 90000 M⁻¹ s⁻¹

B2: VEK75_(AP53), peptide of PAM_(AP53) residues 97-171 (peptide)
chain: VEKLTADAELQRLKNERHEEAELERLKSERHDHDKKEAERKALEDKLADKQEHLNGALRYINEKEAEAKEKEAEQ
modifications: Paper number minus 12 gives the entry number. N-terminal GS left by thrombin cleavage is omitted
Human plasminogen [20]
  Kd: 0.7 nM
Human plasminogen [21]
  Kd: 45 nM
Human plasminogen [22]
  Kd: 15 nM

B3: PAM_(AP53_medium), truncated PAM_(AP53), residues 42-207 (HVR-a1a2-B-c1) (domain or fragment)
chain: NRADDARNEVLRGNLVRAELWYRQIQENDQLKLENKGLKTDLREKEEELQGLKDDVEKLTADAELQRLKNERHEEAELERLKSERHDHDKKEAERKALEDKLADKQEHLNGALRYINEKEAEAKEKEAEQKKLKEEKQISDASRQGLRRDLDASREAKKQVEKDLA
modifications: Paper number minus 12 gives the entry number. His6 left out. About 11% dimer at 25 C
Human plasminogen [18]
  Kd: 16 nM
  koff: 0.0103 s⁻¹
  kon: 650000 M⁻¹ s⁻¹
Human plasminogen [19]
  Kd: 2.4 nM
  koff: 0.00054 s⁻¹
  kon: 230000 M⁻¹ s⁻¹
